From US10487337B2, “Methods for monocot plant improvement” (Agresearch Limited, priority 2014, dated 2019)

Target: T1, BZR1 (Arabidopsis thaliana, UniProt Q8S307)
T1 construct: expressed in transfected cells; host or cells: yeast strain MaV203
T1 sequence (Q8S307 with tags, fused parts or gaps): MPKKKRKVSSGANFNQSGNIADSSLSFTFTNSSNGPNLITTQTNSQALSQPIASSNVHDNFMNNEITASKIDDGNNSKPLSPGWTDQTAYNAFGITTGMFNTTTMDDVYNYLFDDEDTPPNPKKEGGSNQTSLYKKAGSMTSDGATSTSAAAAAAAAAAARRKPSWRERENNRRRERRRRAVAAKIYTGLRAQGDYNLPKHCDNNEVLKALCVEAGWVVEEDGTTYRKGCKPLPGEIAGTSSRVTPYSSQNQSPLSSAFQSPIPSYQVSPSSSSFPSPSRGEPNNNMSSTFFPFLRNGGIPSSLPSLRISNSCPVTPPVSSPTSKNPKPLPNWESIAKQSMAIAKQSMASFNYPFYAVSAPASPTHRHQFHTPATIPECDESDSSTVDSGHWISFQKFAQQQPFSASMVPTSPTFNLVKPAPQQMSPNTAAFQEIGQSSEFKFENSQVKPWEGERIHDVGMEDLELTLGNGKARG
Experiment: Yeast two hybrid (Y2H) interaction with BZR1
Assay type: binding
Text: The constructs for Y2H and BiFC assays were generated as follows. Arabidopsis DNA sequences encoding the open reading frames for; At4g14713 (PPD1) and truncation and deletion derivatives of PPD1: PPD1; PPD1Δppd (N-terminal truncation of sequences encoding aa 1-61), PPD1Δtify, (internal deletion of sequences encoding aa 154-186), PPD1Δjas*(C-terminal truncation of sequences encoding aa 229-313) (FIG. 5), At4g28910 (NINJA), At1g15750 (TPL), At1g75080 (BZR1), a synthetic PUAS-35S promoter, and sequences encoding GAL4DBD and c-myc fusion proteins were synthesised and sequence verified by GeneArt. Most sequences were supplied as clones in pENTR221 ready for Gateway cloning into yeast and plant expression vectors. The exception, a promoter sequence for in planta transcription activation assays, incorporating 5′ Xho1 and 3′ Nco1 restriction enzyme sites, was supplied cloned in pMA-RQ. Plasmids for the transient LUC reporter assay: A synthetic promoter with 5×UAS GAL4 DNA binding sites upstream of a −105 bp CaMV35S promoter was cloned into the XhoI-NcoI sites within a dual luciferase construct pNWA62, which contains an intron-containing Firefly Luciferase gene (LUC) and 35Spro::Renilla Luciferase (REN) as an internal standard, to construct pAML7. […]

B1: TPL: TOPLESS transcriptional co-repressor of Arabidopsis, SEQ ID NO: 60 (protein)
chain: MSSLSRELVFLILQFLDEEKFKETVHKLEQESGFFFNMKYFEDEVHNGNWDEVEKYLSGFTKVDDNRYSMKIFFEIRKQKYLEALDKHDRPKAVDILVKDLKVFSTFNEELFKEITQLLTLENFRENEQLSKYGDTKSARAIMLVELKKLIEANPLFRDKLQFPTLRNSRLRTLINQSLNWQHQLCKNPRPNPDIKTLFVDHSCGPPNGARAPSPVNNPLLGGIPKAGGFPPLGAHGPFQPTASPVPTPLAGWMSSPSSVPHPAVSAGAIALGGPSIPAALKHPRTPPTNASLDYPSADSEHVSKRTRPMGISDEVNLGVNMLPMSFSGQAHGHSPAFKAPDDLPKTVARTLSQGSSPMSMDFHPIKQTLLLVGTNVGDIGLWEVGSRERLVQKTFKVWDLSKCSMPLQAALVKEPVVSVNRVIWSPDGSLFGVAYSRHIVQLYSYHGGEDMRQHLEIDAHVGGVNDISFSTPNKQLCVITCGDDKTIKVWDAATGVKRHTFEGHEAPVYSVCPHYKENIQFIFSTALDGKIKAWLYDNMGSRVDYDAPGRWCTTMAYSADGTRLFSCGTSKDGESFIVEWNESEGAVKRTYQGFHKRSLGVVQFDTTKNRYLAAGDDFSIKFWDMDAVQLLTAIDGDGGLQASPRIRFNKEGSLLAVSGNENVIKIMANSDGLRLLHTFENISSESSKPAINSIAAAAAAAATSAGHADRSANVVSIQGMNGDSRNMVDVKPVITEESNDKSKIWKLTEVSEPSQCRSLRLPENLRVAKISRLIFTNSGNAILALASNAIHLLWKWQRNERNATGKATASLPPQQWQPASGILMTNDVAETNPEEAVPCFALSKNDSYVMSASGGKISLFNMMTFKTMATFMPPPPAATFLAFHPQDNNIIAIGMDDSTIQIYNVRVDEVKSKLKGHSKRITGLAFSNVLNVLVSSGADAQLCVWNTDGWEKQRSKVLPLPQGRPNSAPSDTRVQFHQDQAHFLVVHETQLAIYETTKLECMKQWAVRESLAPITHATFSCDSQLVYASFMDATVCVFSSANLRLRCRVNPSAYLPASLSNSNVHPLVIAAHPQEPNMFAVGLSDGGVHIFEPLESEGKWGVAPPAENGSASGAPTAPSVGASASDQPQR
modifications: Consensus sequence
In the case of B1, the “interaction with BZR1” value is reported as “direct interaction occurs”.
